These are literature values, as cited in US12514872B2, “Polycationic polymers for use in treating and detecting cancer” (Duke University, priority 2015, dated 2026).

Series [1] relates to RNA oligonucleotide coagulation-factor inhibitors (aptamers). The following applies: previous work, WO2008/121354.
The subject of series [2] is orthotopic xenograft pancreatic tumors.
A further series deals with PC tumor cell lines. Particulars: in vitro.

Regarding protamine sulfate, the “reversal of anticoagulant activity of aptamers” value in series [1] is listed as “reverse the anticoagulant activity”.

B1: DNAse I: enzyme used in a cited PC study to treat tumor cells associated with extracellular DNA (protein, UniProt P24855 23-282, looked up)
Deoxyribonuclease-1: LKIAAFNIQTFGETKMSNATLVSYIVQILSRYDIALVQEVRDSHLTAVGKLLDNLNQDAPDTYHYVVSEPLGRNSYKERYLFVYRPDQVSAVDSYYYDDGCEPCGNDTFNREPAIVRFFSRFTEVREFAIVPLHAAPGDAVAEIDALYDVYLDVQEKWGLEDVMLMGDFNAGCSYVRPSQWSSIRLWTSPTFQWLIPDSADTTATPTHCAYDRIVVAGMLLRGAVVPDSALPFNFQAAYGLSDQLAQAISDHYPVEVMLK
B1: the tumor metastasis entry in series [2] is “reduction in tumor metastasis”. For the same molecule, in the series with PC tumor cell lines, the “cell invasion, migration and adhesion” value is “reduced cell invasion, migration, and adhesion”.
